The record followed here is patent US20260275311, “CRISPR NUCLEASE POLYPEPTIDES AND GENE EDITING SYSTEMS COMPRISING SUCH” (ARBOR BIOTECHNOLOGIES, INC., published 2026).

Common to all, as to assay: cell_activity
Holding throughout (conditions): PAM TTAAA; HEK293T

In one series the test system is T1, Nuclease M A373R A373R.
T1 sequence: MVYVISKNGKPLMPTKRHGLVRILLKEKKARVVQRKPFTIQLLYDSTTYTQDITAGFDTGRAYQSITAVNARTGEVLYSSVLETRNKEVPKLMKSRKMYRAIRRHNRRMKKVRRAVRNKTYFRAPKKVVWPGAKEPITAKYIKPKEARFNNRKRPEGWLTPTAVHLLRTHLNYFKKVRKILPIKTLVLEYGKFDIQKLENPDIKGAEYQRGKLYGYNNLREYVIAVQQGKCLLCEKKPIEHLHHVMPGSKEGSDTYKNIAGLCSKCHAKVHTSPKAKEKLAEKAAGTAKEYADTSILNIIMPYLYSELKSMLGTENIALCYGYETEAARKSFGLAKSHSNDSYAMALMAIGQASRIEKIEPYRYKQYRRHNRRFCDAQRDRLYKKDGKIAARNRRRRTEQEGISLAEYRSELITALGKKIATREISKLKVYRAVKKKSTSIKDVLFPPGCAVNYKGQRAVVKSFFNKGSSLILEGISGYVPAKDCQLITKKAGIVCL

A further series has as its system T2, Nuclease M P481R P481R.
T2 sequence: T1 sequence with R373A, P481R

In the next series the test system is T3, Nuclease M S95R S95R.
T3 sequence: T1 sequence with S95R, R373A

A further series relates to T4, Nuclease M N371R N371R.
T4 sequence: T1 sequence with N371R, R373A

Another series relates to T5, Nuclease M E401R E401R.
T5 sequence: T1 sequence with R373A, E401R

A further series relates to T6, Nuclease M E88R E88R.
T6 sequence: T1 sequence with E88R, R373A

Substitutions are numbered along the chain they refer to.

As to “GAGCCUGGUCCAUGGAGAGUGUCAACUACCCCCGUCUAAAGACGGAGGCAUGAGGUUUCGUAACCAAGUGUUGUACCUGCGGGUACAGUAGUUGAACAGGCGGCGAUGCGGCUGGGCACUCCAGGAUGCCACUCCCAGUCCCGGACACUGCCGACGAGCCGCAUCAAGCCGGGGGAGACCAACCGGCUAACGAUAGCCGAGCAAUUACCUAAAAAGAGGUGCAAAGGAAAUGGUAU / GAGCCTGGTCCATGGAGAGT / ACTCTCCATGGACCAGGCTC [Nuclease M VEGFA-T5 guide ; Nuclease M VEGFA-T5 target]”, the binding signal (fold vs Nuclease M) in the series on Nuclease M A373R A373R worked out at 1.53; with Nuclease M P481R P481R it was 1.6; in the series on Nuclease M S95R S95R it was 2.05; in the series on Nuclease M N371R N371R it was 1.65; in the series with Nuclease M E401R E401R, 1.77; with Nuclease M E88R E88R it was 2.09.
